# pKi: −log10 of the molar value.
# Experiments:
# GST-BCL2 = GST-BCL2 (UniProt P10415); assay: fluorescence polarisation
# [1] = target: BCL2 (human (endogenous in OCI-LY8)) (UniProt P10415); assay: co-IP
pKi (GST-BCL2),percent of PARP1 displaced from BCL2 by 100 nM ABT-737 [1],Substance
7.11,,purified PARP1 (from UniProt P09874 1-1014) (enzyme)
,65%,poly(ADP) ribose polymerase 1 (PARP1) (from UniProt P09874 1-1014) (enzyme)
